Reference: the nanobody polyreactivity screen of Harvey et al. (2022)

Test: yeast display, Sf9 membrane polyspecificity reagent, FACS + sequencing; frameworks hold sequencing errors
Outline: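 Synthetic nanobody libraries on Saccharomyces cerevisiae BJ5465 were galactose-induced for 36–48 hours, stained 1 hour at 4 °C with 10% biotinylated, detergent-solubilized Sf9 membrane reagent and enriched on streptavidin microbeads. FACS then separated cells into low and high (top ~1%) gates by anti-HA (expression) and streptavidin (reagent binding) fluorescence. Genes were colony-PCR amplified, MiSeq 2 × 250 sequenced and CDR-length filtered. A clone's polyreactivity label is that of its gate of origin.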

Sequence | polyreactivity (PSR sort gate)
QVQLVESCGGLVHAGCSLRLSCAASGSTFTFYAMGWYRQAPGKERVLVATISWSTGTTYYADSVKGRFTISRDSAKNTVYLEMNSMKPEDTAVYYCADAWSYRFDYWGQGTQVTVSS | low polyreactivity
QVQLVESGGGLVQAGGSLRLSCAASGFIFFYYAMGWYRQAPGKERELVASINWSGGRTYYADSVKGRFTISRDNAKNTVYLQMNSLKPEDTAVYYCAADRRFSTYDYWGQGTQVTVSS | high polyreactivity
QVQLVESGGGLVQAGGSLRLSCAASGITFYDYAMGWYRQAPGKERELVAAISDSGGITYYADSVKGRFTISRDNAKNTVYLQMNSLKPEDTAVYFCAAEDQLNRDYWGQGTQVTVSS | high polyreactivity
QVQLVESGGGLVQAGGSLRLSCAASGLTFVPNAMGWYRQAPGKERELVAAISNNGGRTYYADSVKGRFTISRDNAKNTVYLQMNSLKPEDTAVYYCAKYLSPGERHSYDYWGQGTQVTVSS | high polyreactivity
QVQLVESGGGLVQAGGSLRLSCAASGIIFVSYDMGWYRQAPGKERELVAAINRGGRTYYADSVKGRFTISRDNAKNTDYLQMNSLKPEDTAVYYCAAQFHFRPFSWTYDYWGQGTQVTVSS | high polyreactivity
QVQLVESGGGLVQAGGSLRLSCAASGSSFRVYAMGWYRQAPGKERELVAAISGSGGSTYYADSVKGRFTISRDNAKNTVYLQMNSLKPVDTAVYYCAARSWYTEYYWGQCTQVTVSS | high polyreactivity
QVQLVESGGGLVQAGGRLRLRCAASGHIFYYYTLGWYRQAPGKERELVAGITIGGSTNYADSVKGRFTISRDNAKNTVYLQMNSLKPEDTAVYYCNVVKYVYIYSYWEYYYWGQGTQVTVSS | low polyreactivity
QVQLVESGGGLVQAGGSLRLSCAASGRIFYYAMGWYRPAPGKERELVAAISRSGGSTYYADSVKGRFTISRDNAKNTVYLQMNSLKPEDTAVYYCAAVIYIYPISKRDYWGQGTQVTVSS | low polyreactivity
QVQLVESGGGLVQAGGSLRLSCAASGRIFSVNAMGWYRQAPGKERELVASISWSGGSTYYADSVKGRFTISRDNAKNTVYLQMNSLKPEDTAVYYCARGYWVYYPDGDYWGQGTQVTVSS | low polyreactivity
QLQLVESGGGLVQAGGSLRLSCAASGFTFQYYAMGWYRQAPCKERELVAVISRSGGRTYYADSVKGRFTISRDNAKYTVYLQMYSLKPEDTAVYYCAALSQPGQRDDNQYDYWGQGTQVTVSS | high polyreactivity
QVQLVESGGGLVQAGGSLRLSCAASGFIFYYNAMGWYRQAPGKERELVAAISASGDRTYYADSVKGRFTISRDNAKNTVYLQMNSLKPEDTAVYYCAARSQGARYSSRRRFGDYWGQGTQVTVSS | high polyreactivity
QVQLVESGGGLVQAGGSLRLSCAASGNIFGRYAMGWYRQAPGKERELVAAISSGDITYYADSVKGRFTISRDNAKNTVYLQMNSLKPEDTAVYYCAADSYWSVVYIKYDYWGQGTQVTVSS | low polyreactivity
QVQLVESGGGLVQAGGSLRLSCAASGSTFRLYAMGWYRQAPGKEREFVAAISFRGGSTYYADSVKGRFTISRDNAKNTVYLQMNSLKPEDTAVYYCNARVRVRLGRNWSSYYYWGQGTQVTVSS | high polyreactivity
QVQLVDSWGGLVQAGGSLRLSCAASGFIFPYNTMGWYRQAPGKERELVAAISSGGSTYYADSVKGRFTISRDNAKNTVYLQMNSLKPEDTAVYYCAVRGRRSPYGYWGQGTQVTVSS | high polyreactivity
QFQLVESGGGLVQAGGSLRLSCAASGSTFKSYAMGWYRQAPGKEREFVAVITWSGGRTSYADSVKGRFTISRDNAKNTVYLQMNSLKPEDTAVYYCAAKAASRYRAFTYDYWGQGTQVTVSS | low polyreactivity
QVQLVESGGGLVQAGGSLRLSCAASGSTFGAYAMGWYRQAPGKEMELVAAISRRGGSTYYADSVKGRFTISRDNAKNTVYLQMNSLKPEDTAVYYCNAVGTRVDGEHYYWGQGTKVTVSS | high polyreactivity
QVQLVESGGGLVQAGGSLRLSCAASGFIFYDYAMGWYRQAPGKERELVASISWSTGSTYYADSVKGRFTISRDNAKNTVYLQMNSLKPEDTADYYCAADGYPLQLYNYWGQGTQVTVSS | low polyreactivity
QVQLVESGGGLVQAGGSLRLSCAASGRNFQVYAMGWYRQAPGKERELVAAISFSGDRTYYADSVKGRFTISRDNAKNTVYLQMNSLKPEDTAVYYCSADGFVYDLRARPGWVDYWGQGTQVTVSS | low polyreactivity
QFQLVESGGGLVQAGGSLRLSCAASGSIFTYNVMGWYRQAPRKERELVAAISDGDGSTYADSVKGRFTISRDNAKNTVYLQMNSLKPEDTAVYYCAAVDGRYLGGFNSRDGDWGQGTQVTVSS | low polyreactivity
QVQLVESGGGLVQAGGSIRLSCAASGRIFGRNAMGWYRQAPGKERELVAAISSSGGTYYADSGKGRFTISRDNAKNTVYLQMNSLKPEDTAVYYCNGRVRTQQRWVDYWGQGTQVTVSS | high polyreactivity
QVQLQESGGGLVQAGGSLRQSCEASGYIFPYYSMGWYRQAPGKERGLVACIAAGTTTNYADSVKVRFTISRDNAKNTVYLQMNSLKPEDAAVYYCAALNAFNPGHWYWGQGSQVTVSS | low polyreactivity
QVQLVESGGGLVQAGGSLRLSCAASGSTFRYYAMGWYRQAPGKERELVAAIRSGGGTYYADSVKGRFTISRDNAKTTVYLQMNSLKPEDTAVYYCAARSYSRRVSYYYWGQGTQVTVSS | high polyreactivity

Sequence | polyreactivity (PSR sort gate)
QVQLVESGGGLLQAGGSLRLSCAASGRTLWIYAMGWYRQAPGKERELVASITTRGGSTYYADSVKGRFTISRDNAKNTVYLQMNSLKPEDTAVYYCARVSGARYTSYDYWGQGTQVTVSS | high polyreactivity
QVQLVESGGGLVQAGGSLRLSCAASGSTIYVNAMGWYIQAPGKERELVAAIRSSAGNTTYADSVKGRFTISRDNAKNTVYLQMNSLKPEVTAVYYCAADSRPYLRDYWGQGTQVTVSS | low polyreactivity
QVQLVESGGGLVQAGGSLRLSCAASGRNFWDYAMGWYRQAPGKERELVAGISYSGGSTSYADSVKGRFTISRDNAKNTVYLQMNSLKPEDTAVYYCAAGPSGTFFRDYDYWGQGTQVTVSS | low polyreactivity
QVQLVESGGGLVQAGGSLRLSCAASGYTFYYSMGWYRQAPGKERELVAAISAGGGRTYYADSVKGRFTISRDNAKNTVYLQMNSLKPEDTAVYYCNRVYRLTAYGYDYWGQGTQVTVSS | high polyreactivity
QVQLVESGGGLVQAGGSLRLSCAASGNIFAYYAMGWYRQAPGKERELVAAITDSGGNTFYADSVKGRFTISRDNAKNTVYLQMNSLKPEDTAVYYCAADPDGWGFVYPRYDYWGQGTQVTVSS | low polyreactivity
QVQLVESGGGLVQAGGSLRLCCAASGNIFAYYAMGWYRQPPAKERELVAGISRRGGNTYYADSVKGRFTISRDNAKNTVYLQMNSLKPEDTAVYYCAAITYSGQRFDYWGQGTQVTVSS | high polyreactivity
QVQLVESGGGLVQAGGSLRLSCAASGGIFGLYTMGWYRQAPGKERELVAAISKTGGSTYYADSVKGRFTISRDNAKNTVYLQMNSLKPEDTAVYYCAKAGRYANLPYGYWGQGTQVTVSS | high polyreactivity
QVQLVESGGGLVQAGGSLRLSCAASGRIFYGNAMGWYRQAPGKERELVASITSSGSTKYADSVKGRFTISRDNAKNTVYLQMNSLKPEDTAVYYCAASYTKRYDTYAGYDYWGQGTQVTVSS | low polyreactivity
QVQLVESGGGLVQAGGSLLLSCAASGSIFYYYAMGWYRQAPGKERELVAAISKSGGSTYADSVKGRFTISRDNAKNTVYLQMNSLKPEDTAVYYCAKEFKYWGYPYDYWGQGTQVTVSS | low polyreactivity
QVQLQESGGGLVQAGGSLRLSCAASGSIFKVVDMGLYRQAPAKEREFVATIGEGGNTYYADSVKGRFTISRDNAKNTVYLQMNSLKTEDTAVYFYAVVLGTSYRYTYWGQGTKVTVSS | low polyreactivity
QVQLVESGGGLVQAGGSLRLSCAASGRTFWYSAMGWYRQAPGKEREFVAAISWSGGSTYYADSVKGRFTISRDNAKNTVYLQMNSLKPEDTAVYYCAADRYDSSQFYYWGQGTQVTVSS | low polyreactivity
QVHIEDSGGGLLQAGGSLRLSCAATGRTFFYYAMGWYRQAPGKERELVAAISGRGGRTYYADSVKGRFTISRDNAINTVYLQMNSLKPEDTAVYFCGGDAGPLRYDYWGQGTQVTVSS | high polyreactivity
QVQLVESGGGLVQAGGSLRLSCAASGNIFNEYARGWYSQAPGKESELVAAITWSAGSTYYADSVKGRFTISRDNAKNTVYLQMNSVKPEDTGVYYCNTQEKANTQHYYWGQGTQVTVSS | low polyreactivity
QVQLVESGGGLVQAGGSLRLSCAASGRTFNYYAMGWYRQAPGKEREFVAANSWSVGSTYYADSVKGRFTISRDNAKNTVYLQMNSLKPEDTAVYYCATEVPVGVQRHIFNYYYWGQGTPVTVSS | low polyreactivity
QVQLVESGGGLVQAGGSLRLSCAASGITFNKYAMGWYRQAPGKERELVAAISSRGGSTYYADSVKGRFTISRDNAKNTVYLQMNSLKPEDTAVYYCNADVYRASNFDYWGQGTQVTVSS | high polyreactivity
QVQLVESGGGLFQAGGSLRLSCAASGIIFQRNDMGWYRQAPGKERELVANIRDGGITYADSVKGRFTISRDNAKNTVYLQMNSLKPEDTAVYYCARDDTSPGYCDQSSNAAYYYWGQGTQVTVSS | low polyreactivity
QVQLVESGGGLVQAGGSLRLSCAASGSIFVENAMGWYRQAPGEERELVAAISSSGDSTYYADSVKGRFTISRDNAKNTVYLQINSLKPEDTAVYYCNRRRPRYYWGQGTQVTVSS | high polyreactivity
QVQLVESGGGLVQAGGSLRLSCAASGSIFWQYAMGWYRQAPGKERELVAAINWSGDTTYYADSVKGRFTISRDNAKNTVYLQMNSLKPEDTAVYYCAAVGGVSFGGSPKTHAGEDYWGQGTQVTVSS | low polyreactivity
QVQLVESGGGLVQAGGSLRLSCAASGIIFKYYAMGWYRQAPGKERELVAAISRSSGSTYYADSVKGRFTISRDNAKNTVYLQMNSLKPEDTAVYYCAASGWPQKYDYWGQGTQVTVSS | high polyreactivity
QVQLVESGGGLVQAGGSLRLSCAASGIIFLDYVMGWYRQAPGKERELVAAISRSGGTTYYADSVKGRFTISRDNAKNTVYLQMNSLKPEDTAVYYCAVRSYRDTRFYYWGQGTKVTVSS | high polyreactivity
QVQLVESGGCLVQAGCSLRLSCAASGGTFDVNAMGWYRQAPGKERELVAAITWSGGNTYYADSVKGRFTISRDNAKNTVYLQMNSLKPEDTAVYYCATDFSPVYYTRYDYWGQGTQVTVSS | low polyreactivity
